T1: 人源OX40的胞外区与人Fc融合蛋白(OX40-hFc) (human, UniProt P43489 29-214)
T1 construct: extracellular domain; Coated on ELISA plates at 2 μg/mL; not shown: human Fc
T1 sequence (looked up): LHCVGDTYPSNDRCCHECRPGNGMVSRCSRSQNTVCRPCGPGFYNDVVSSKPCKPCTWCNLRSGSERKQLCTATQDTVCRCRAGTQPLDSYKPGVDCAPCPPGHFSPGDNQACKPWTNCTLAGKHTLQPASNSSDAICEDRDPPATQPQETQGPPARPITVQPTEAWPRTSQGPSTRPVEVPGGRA

T2: 人OX40 (Jurkat-OX40细胞) (human, UniProt P43489 29-277)
T2 construct: whole, on cells; also called OX40受体; CD134
T2 sequence (looked up): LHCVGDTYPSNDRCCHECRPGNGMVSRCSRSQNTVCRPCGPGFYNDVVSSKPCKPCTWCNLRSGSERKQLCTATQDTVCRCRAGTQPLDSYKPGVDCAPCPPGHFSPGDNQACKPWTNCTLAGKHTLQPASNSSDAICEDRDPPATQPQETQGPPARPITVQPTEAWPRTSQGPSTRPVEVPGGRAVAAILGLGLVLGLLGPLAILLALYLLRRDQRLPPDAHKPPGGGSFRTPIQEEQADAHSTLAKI

T3: 人源OX40的胞外区与小鼠Fc融合蛋白(OX40-ECD-mFc) (human, UniProt P43489 29-214)
T3 construct: extracellular domain; also called OX40-mFc; not shown: mouse Fc
T3 sequence (looked up): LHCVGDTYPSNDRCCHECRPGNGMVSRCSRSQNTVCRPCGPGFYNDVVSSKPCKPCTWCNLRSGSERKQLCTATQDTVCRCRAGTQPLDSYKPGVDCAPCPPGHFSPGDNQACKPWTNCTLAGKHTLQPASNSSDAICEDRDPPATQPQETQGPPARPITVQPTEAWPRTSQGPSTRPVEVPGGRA


Key:
[1] = molecular target: T1, 人源OX40的胞外区与人Fc融合蛋白(OX40-hFc); test: ELISA on coated OX40-hFc (Fig. 1)
[2] = molecular target: T2, 人OX40 (Jurkat-OX40细胞); test: FACS on Jurkat-OX40 cells (Fig. 3)
[3] = molecular target: T3, 人源OX40的胞外区与小鼠Fc融合蛋白(OX40-ECD-mFc); test: ELISA on OX40-mFc (Fig. 7)
[4] = molecular target: T2, 人OX40 (Jurkat-OX40细胞); test: FACS on Jurkat-OX40 cells (Fig. 9)

| binding result [1] | binding result [2] | binding result [3] | binding result [4] | Binder |
| --- | --- | --- | --- | --- |
| binds | binds |  |  | 抗人OX40鼠源抗体9G7 (antibody, V domains shown, Mouse hybridoma antibody purified by Protein A) VH: EVKLVESGGGLVQPGGSLKLSCAASGFTFSDYYMYWVRQTPEKRLEWVAYISNGDISTYYPDTVKGRFTISRDNAKNTLYLQMSRLKSEDTAMYYCARDDGYSAWFAYWGQGTLVTVSA VL: not shown |
|  |  | binds | binds | 抗人OX40人源化抗体3F5 (antibody, IgG1, V domains shown, expressed in 293 cells; also called hu3F5; hu3F5-hIgG1) VH: EVQLVESGGGLVQPGGSLRLSCAASGFTFGSYAMSWVRQAPGKGLEWVAEISSGGIYTYYADIVTGRFTTSRDNAKNSLYLQMNSLRAEDTAVYYCVRDFDYRFAYWGQGTLVTVSS VL: DIQMTQSPSSLSASVGDRVTITCKSSQEISGYLAWLQQKPGKAPKRLIYAASSLDVGVPSRFSGSRSGSEYTLTISSLQPEDFATYYCFQYASYPYTFGQGTKLEIK |
|  |  | binds | binds | 抗人OX40人源化抗体1A2 (antibody, V domains shown, expressed in 293 cells; also called hu1A2; 1A2人源化抗体) VH: QVTLKESGPTLVKPTQTLTLTCTFSGFSLATSGVAVGWIRQPPGKALEWLAHIWWDDVKRYNPSLQGRLTITKDTSKNQVVLTMTNMDPVDTATYYCARMDWDGLAYWGQGTLVTVSS VL: EIVLTQSPATLSLSPGERATLSCSVSSSISSSNLHWYQQKPGQAPRPWIYGTSNLATGIPARFSGSGSGTDYTLTISSLEPEDFAVYYCQQYSSYPFTFGGGTKVEIK |
|  |  | binds | binds | 抗人OX40人源化抗体3C9 (antibody, IgG1, V domains shown, expressed in 293 cells; also called hu3C9; hu3C9-hIgG1) VH: QVQLVQSGAEVKKPGASVKVSCKASGYTFTSYIMHWVRQAPGQGLEWIGYINPYNGGSRYNDKFKVRATLTSDKSISTAYMELSRLRSDDTAVYYCARGDYDDGAWFGYWGQGTTVTVSS VL: DIVMTQSPLSLPVTPGEPASISCKSSQSLLHSNGITYLFWYLQKPGQSPQLLIYRMSNRASGVPDRFSSSGSGTDFTLKISRVEAEDVGVYYCGQNLELPVTFGQGTKLEIK |
| binds | binds |  |  | 抗人OX40鼠源抗体15A7 (antibody, V domains shown, Mouse hybridoma antibody purified by Protein A) VH: QVQLQQSGPGLAKPSQTLSLTCSVTGYSITSDYWNWIRKFPGNKLEYMGYISYSGSTSYNPSLKSRISITRDTSKNQYYLQLSSVTTEDTATYYCARGGYYYGSSYPYYFDYWGQGTTLTVSS VL: DIVMTQSTKFMSTTVGDRVSITCKASQNVGTAVAWYQQKPGQSPKLLIYSPSNRYTGVPDRFTGSGSGTDFTLTITNVQSEDLADYFCQQYSSYRTFGGGTKLEIK |
| binds | binds |  |  | 抗人OX40鼠源抗体1G4 (antibody, V domains shown, Mouse hybridoma antibody purified by Protein A) VH: RVQLVQSGPELKKPGETVKISCKASGYTFTDYSIHWVKQAPGKGLKWMGWINTETGESTYADDFKGRFVFSSEISATTAYLQINSLKNEDTSTYFCAWVPPWYFDVWGAGTTVTVSS VL: DIVMTQSTTSLSVSLGDRVTINCRTSQDITNYLNWYQQKPDGTIKLLIYYTSMLKSGVPSRFSGSGSGTDYSLTISHLEQDDIATYFCQQGNTPPLTFGAGTKLELK |
| binds | binds |  |  | 抗人OX40鼠源抗体3C9 (antibody, V domains shown, Mouse hybridoma antibody purified by Protein A) VH: DVQLQQSGPELVKPGASVRMSCKASGYTFTSYIMHWVKQKPGQGLEWIGYINPYNGGSRYNDKFKVKATLASDKSSSTAYMELSSLTSADSAVYYCARGDYDDGAWFGYWGQGTLVTVSA VL: EIQMTQAAPSVPVTPGESVSISCKSSQSLLHSNGITYLFWYLQRPGQSPQLLIYRMSNRASGVPDRFSSSGSGTAFTLKISRVEADDVGVYYCGQNLELPVTFGAGTKVELK |
| binds | binds |  |  | 抗人OX40鼠源抗体3F5 (antibody, V domains shown, Mouse hybridoma antibody purified by Protein A) VH: EVQLVESGGDLVRPGGSLKLSCAASGFTFGSYAMSWVRQSPEKRLEWVAEISSGGIYTYYADIVTGRFTTSRDNAKNTLYLEMSSLRSEDTAMYYCVRDFDYRFAYWGQGTLVTVSA VL: DIQMTQTTSSLSASLGDRVTISCKSSQEISGYLAWLQQKPDGTVKRLIYAASSLDVGVPSRFSGSRSGSDYSLTISNLEPEDIATYYCFQYASYPYTFGGGTKLEIK |
| binds | binds |  |  | 抗人OX40鼠源抗体3D9 (antibody, V domains shown, Mouse hybridoma antibody purified by Protein A) VH: QVQLQESGPGLVAPSQSLSITCTVSGFSLTTYGITWVRQPPGKGLEWLGVIWDDGSTNYHSALISRLSISKNNYKSQVFLTLNSLQTDDTATYYCAKLLPYYFDSWGQGTTLTVSS VL: DIVMTQSPSSLSASLGDRVTISCRASQDISNYLNWYQQKPNGTVKLLIYYTSRLLSGVPSRFSGSGSGTDYSLTISSLEQEDIATYFCQQGYTLPPTFGGGTKLEIK |
| binds | binds |  |  | 抗人OX40鼠源抗体17C1 (antibody, V domains shown, Mouse hybridoma antibody purified by Protein A) VH: DVQLQESGPGLVKPSQSLSLTCTVTGYSITSDYAWNWIRQFPGNKLEWMGYITYSGFTRYNPSLKSRFSITRDTSKNQFFLQLNSVTTEDTATYYCVYPAWFAYWGQGTLVTVSA VL: not shown |
| binds | binds |  |  | 抗人OX40鼠源抗体1A2 (antibody, IgG1, V domains shown, Mouse hybridoma antibody purified by Protein A; also called 1A2-mIgG1) VH: EVQLKESGPGIVQPSQSLSLTCTFSGFSLATSGVAVGWIRQPSGKGLEWLAHIWWDDVKRYNPSLQGRLTISKDTASSQVFLKISSVDTADTATYYCARMDWDGLAYWGAGTTVTVSA VL: EIVLTQSPALMAASPGEKVTITCSVSSSISSSNLHWYQQKSETSPKPWIYGTSNLATGVPVRFSGSGSGTSYSLTISSMEAEDAATYYCQQYSSYPFTFGGGTKLEIK |
|  |  | binds | binds | 抗人OX40人源化抗体15A7 (antibody, IgG1, V domains shown, expressed in 293 cells; also called hu15A7; hu15A7-hIgG1) VH: QVQLQESGPGLVKPSETLSLTCTVSGYSITSDYWNWIRQPPGKGLEYMGYISYSGSTSYNPSLKSRITISRDTSKNQYSLKLSSVTAADTAVYYCARGGYYYGSSYPYYFDYWGQGTLVTVSS VL: DIQMTQSPSTLSASVGDRVTITCKASQNVGTAVAWYQQKPGKAPKLLIYSPSNRYTGVPSRFSGSGSGTEFTLTISSLQPDDFATYYCQQYSSYRTFGGGTKVEIK |
